Results reported in the RNAGym collection of RNA variant scans (doi:10.7554/elife.90254).

B1: OR4K15 (parent)
chain: GUUAACGGUCAUAGGCCAUGGAAACUAGGAGCACCAUUUCGCUGCCAGUGAAGAAAUGAACAAAGAAAAUCUGGGCCAGGCAGGCAUCAAAAGAAAUAGUCUUGCGCUCAACCAGAAAGUCUGUAAUCAUUUUAAGGGUA

Variants of: B1
Experiment: self-cleavage, relative activity (ratio to wild type); higher = more cleavage; in vitro, sequencing; the parent is a self-cleaving ribozyme

Variant	self-cleavage
GUUAACGGUCAUAGGCCAUGGGAACUAGGAGCACCAUUUCGCUGCCAGUGAAGAAGUGAACAAAGAAAAUCUGGGCCAGGCAGGCAUCAAAAGAAAUAGUCUUGCGCUCAACCAGAAAGUCUGUAAUCAUUUUAAGGGUA [A22G A56G]	1.01
GUUAACGGUCAUAGGCCAUGGGAACUAGGAGCACCAUUUCGCUGCCAGUGAAGAAAUGAACAAAGAAAAUCUGGGCCAGGCAGGCAUCAAAAGAAAUAGUCUUGCGCUCAACCAGAAAGUCUGUAAUCAUUUUAAGGGUA [A22G]	1.09
GUUAACGGUCAUAGGCCAUGGGAACUAGGAGCACCAUUUCGCUGCCAGUGAAGCAAUGAACAAAGAAAAUCUGGGCCAGGCAGGCAUCAAAAGAAAUAGUCUUGCGCUCAACCAGAAAGUCUGUAAUCAUUUUAAGGGUA [A22G A54C]	1.7
GUUAACGGUCAUAGGCCAUGGGAACUAGGAGCACCAUUUCGCUGCCAGUGAAGGAAUGAACAAAGAAAAUCUGGGCCAGGCAGGCAUCAAAAGAAAUAGUCUUGCGCUCAACCAGAAAGUCUGUAAUCAUUUUAAGGGUA [A22G A54G]	0.84
GUUAACGGUCAUAGGCCAUGGGAACUAGGAGCACCAUUUCGCUGCCAGUGAAGAAAUGCACAAAGAAAAUCUGGGCCAGGCAGGCAUCAAAAGAAAUAGUCUUGCGCUCAACCAGAAAGUCUGUAAUCAUUUUAAGGGUA [A22G A59C]	1.17
GUUAACGGUCAUAGGCCAUGGGAACUAGGAGCACCAUUUCGCUGCCAGUGAAGAAAUGUACAAAGAAAAUCUGGGCCAGGCAGGCAUCAAAAGAAAUAGUCUUGCGCUCAACCAGAAAGUCUGUAAUCAUUUUAAGGGUA [A22G A59U]	1.11
GUUAACGGUCAUAGGCCAUGGGAACUAGGAGCACCAUUUCGCUGCCAGUGGAGAAAUGAACAAAGAAAAUCUGGGCCAGGCAGGCAUCAAAAGAAAUAGUCUUGCGCUCAACCAGAAAGUCUGUAAUCAUUUUAAGGGUA [A22G A51G]	1.22
GUUAACGGUCAUAGGCCAUGGGAACUAGGAGCACCAUUUCGCUGCCAGUGAUGAAAUGAACAAAGAAAAUCUGGGCCAGGCAGGCAUCAAAAGAAAUAGUCUUGCGCUCAACCAGAAAGUCUGUAAUCAUUUUAAGGGUA [A22G A52U]	1.02
GUUAACGGUCAUAGGCCAUGGCAACUAGGAGCACCAUUUCGCUGCCAGUGAAGAAAUGAACAAAGAAAAUCUGGGCCAGGCAGGCAUCAAAAGAAAUAGUCUUGCGCUCAACCAGAAAGUCUGUAACCAUUUUAAGGGUA [A22C U127C]	1.48
GUUAACGGUCAUAGGCCAUGGCAACUAGGAGCACCAUCUCGCUGCCAGUGAAGAAAUGAACAAAGAAAAUCUGGGCCAGGCAGGCAUCAAAAGAAAUAGUCUUGCGCUCAACCAGAAAGUCUGUAAUCAUUUUAAGGGUA [A22C U38C]	2.55
GUUAACGGUCAUAGGCCAUGGCAACUAGGAGCACCAUUUCGCUGCCAGUGAAGAAAUGAACAAAGAAAAUCUGGGCCAGGCAGGCAUCAAAAGUAAUAGUCUUGCGCUCAACCAGAAAGUCUGUAAUCAUUUUAAGGGUA [A22C A94U]	2.06
GUUAACGGUCAUAGGCCAUGGGAACUAGGAGCUCCAUUUCGCUGCCAGUGAAGAAAUGAACAAAGAAAAUCUGGGCCAGGCAGGCAUCAAAAGAAAUAGUCUUGCGCUCAACCAGAAAGUCUGUAAUCAUUUUAAGGGUA [A22G A33U]	1.4
GUUAACGGUCAUAGGCCAUGGGAACUAGGAGCGCCAUUUCGCUGCCAGUGAAGAAAUGAACAAAGAAAAUCUGGGCCAGGCAGGCAUCAAAAGAAAUAGUCUUGCGCUCAACCAGAAAGUCUGUAAUCAUUUUAAGGGUA [A22G A33G]	0.98
GUUAACGGUCAUAGGCCAUGGGAGCUAGGAGCACCAUUUCGCUGCCAGUGAAGAAAUGAACAAAGAAAAUCUGGGCCAGGCAGGCAUCAAAAGAAAUAGUCUUGCGCUCAACCAGAAAGUCUGUAAUCAUUUUAAGGGUA [A22G A24G]	1
GUUAACGGUCAUAGGCCAUGGGAUCUAGGAGCACCAUUUCGCUGCCAGUGAAGAAAUGAACAAAGAAAAUCUGGGCCAGGCAGGCAUCAAAAGAAAUAGUCUUGCGCUCAACCAGAAAGUCUGUAAUCAUUUUAAGGGUA [A22G A24U]	1.27
GUUAACGGUCAUAGGCCAUGGGGACUAGGAGCACCAUUUCGCUGCCAGUGAAGAAAUGAACAAAGAAAAUCUGGGCCAGGCAGGCAUCAAAAGAAAUAGUCUUGCGCUCAACCAGAAAGUCUGUAAUCAUUUUAAGGGUA [A22G A23G]	1.09
GUUAACGGUCAUAGGCCAUGGCAACUAGGAGCACCAUUUCGCUGCCAGUGAAGAAAUGAACAAAGAAAACCUGGGCCAGGCAGGCAUCAAAAGAAAUAGUCUUGCGCUCAACCAGAAAGUCUGUAAUCAUUUUAAGGGUA [A22C U70C]	1.25
GUUAACGGUCAUAGGCCAUGGGAACUGGGAGCACCAUUUCGCUGCCAGUGAAGAAAUGAACAAAGAAAAUCUGGGCCAGGCAGGCAUCAAAAGAAAUAGUCUUGCGCUCAACCAGAAAGUCUGUAAUCAUUUUAAGGGUA [A22G A27G]	1.04
GUUAACGGUCAUAGGCCAUGGGAACUAGGAGCACCUUUUCGCUGCCAGUGAAGAAAUGAACAAAGAAAAUCUGGGCCAGGCAGGCAUCAAAAGAAAUAGUCUUGCGCUCAACCAGAAAGUCUGUAAUCAUUUUAAGGGUA [A22G A36U]	0.87
GUUAACGGUCAUAGGCCAUGGCAACUAGGAGCACCAUUUCGCUGCCAGUGAAGAAAUGAACAAAGAAAAUCUGGGCCAGGCAGGCAUCAAAAGAAAUAGUCUUGCGCUCAACCAGAAAGUCUGUAAUCAUGUUAAGGGUA [A22C U131G]	0.94
GUUAACGGUCAUAGGCCAUGGCAACUAGGAGCACCAUUUCGCUGCCAGUGAAGAAAUGAACAAAGAAAAUCUGGGCCAGGCAGGCAUCAAAAGAAGUAGUCUUGCGCUCAACCAGAAAGUCUGUAAUCAUUUUAAGGGUA [A22C A96G]	2.53
